Variants at the floor of the assay were thinned out.
B1: TPR 5TU (parent)
chain: GGAUCUUCUCGAUCUAACAAAAAAGACAAAUCUGCCACAAAGCUUGAGAGCAUCUUCGGAUGCAGAGGCGGCAGCCUUCGGUGGCGCGAUAGCGCCAACGUUCUCAACUAUGACACGCAAAACGCGUGCUCCGUUGAAUGGAGUUUAUCAUG

Variants of: B1
Assay: polymerase ribozyme fitness, log enrichment relative to wild type (log ratio); higher = more active; in vitro selection for triplet polymerase activity
Outline: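 Mutant libraries of both subunits of a heterodimeric triplet polymerase ribozyme were PCR-built, transcribed, and selected once in triplicate, with frozen incubation at −7 °C and capture of gel-excised extended constructs on streptavidin beads before RT-PCR. Illumina sequencing of input and output libraries was filtered to genotypes with ≥10 input reads and ≥1 read per output. Fitness is the logarithm of genotype enrichment over wild-type enrichment, using inverse-variance-weighted replicate averages. The logarithm is base 2.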

Variant	polymerase ribozyme fitness (log ratio)
GGAUCUUCUCGAUCUAACAAAAUAGACAAAUCUGCCACAAAGCUUGAAAGCAUCUUCGGAUGCAGAGGCGGCAGCCUUCGGUGGCGCGAUAGCGCCAACGUUCUCAACUAUGGCACGCAUAACGCGUGCUCCGUUGAAUGGAGUUUAUCAUG [A23U G48A A113G A120U]	≤ -4.2
GGAUCUUCUCGAUCUAACAAAAAAGACAAAUCUGCCACAAAGCUUGAGAGCAUCUUCGGAUGCAGAGGCGGCAGCCUUCGGUGACGCGAUAGGGCCAACGUUCUCAACUAUGACACGCAAAACGCGUGCUCCGUUGAAUGGAGUUUAUCAUG [G84A C93G]	-3.77
GGAUCUUCUCGAUCUAACAAAAAAGACAAAUCUGCCACCAAGCUUGAGAGCAUCUUCGGAUGCAGAGGCGGCAGCAUUCGGUGGCGCGAUAGCGCCAACGGUCUCAACUAUGAUACGCAAAACGGGUGCUCCGUUGAAUGGAGUGUAUCAUG [A39C C76A U101G C114U C125G U145G]	-3.83
GGAUCUUCUCGAUCUAACAAAAAAGACAAAUCUGCCACAAAGCUUGCGAGCAUCUUCGGAUGCAGAGGCGGCAGCCUUCGGUGGCGAGAUAGCGCCAAUGUUCUCAACUAUGACACGCAAAACGCGUGCUCCGUUUAAUGCAGUUUAUCAUG [A47C C87A C99U G136U G141C]	≤ -4.2
GGAUCGUCUCGAUCUAACAAAAAAGACAAAUCUGCCACAAAGCUUGAGAGCAACUUCGGAUGCAGAGGCGGCAGCCUUCUGUGGCGCGAUAGCGCCAACGUUCUCAACUAUGACACGCAAAACGCGUGCUCCGUUGAAUGGAGUUUAUCAUG [U6G U53A G80U]	≤ -4.2
GGAUCUUCUCGAUCUAACAAAAAAGAAAAAUCUGCCACAAAGCUUGAGAGCAUCUUCGGAUGCAGAGGCGGCAGCCAUCGGUGGCGCGAUAGCACCAACGUUCUCAACUAUGAUACGCAAAACGCGUGCUCCGUUGAAUGGAGUUUAUCAUG [C27A U77A G94A C114U]	≤ -4.2
GGAUCUUCUCGAUCUACCAAAAAUGACAAAUCUGCCACAAAGCUUGACAGCAUCUUCGGAUGCAGAGGCGGCAGCCUUCGGUGGCGCGGUAGGGCCAACGUUCUCAACUAUGACACGCAAAACGCGUUCUCCGUUGAAUGGAGUUUAUCAUG [A17C A24U G48C A89G C93G G128U]	≤ -4.2
GGAUCUUCUCGAUCUAACAAAAAAGACAAAUCUGCAACAAAGCUUGAGAGCAUCUUAGGAUGCAGAGGCGGCAGCCUUCGGUGGCGCGAUAGCGCCAAGGUUCUCUACUAUGACCCGCAAAACGCGUGCUCCGUUGAAUGGAGUUUAUCAUG [C36A C57A C99G A106U A115C]	≤ -4.2
GGAUCUUCUCGAUCUAACAAAAAAGACAAAUCUUCCACAAAGCUUGAUAGCAUCUUCGCAUGCAGACGCGGCAGCCUUCGCUGGCGCGAUAGCGCCAACGUUCUCAACUAUGACACGCAAAACGCGUGCUCCGAUGAAUGUAGUUUAUCAUG [G34U G48U G59C G67C G81C U134A G141U]	≤ -4.2
GGAUCUUCUCGAUCUAACAAAAAAGACAAAUCUGCCACAAAGCUUGAGAGAAUUUUCGGAUGCAGAGGCGGCAGCCUUCGGUGGUGCGAUAGCGCCAACGUUCUCAACUAUGACACGCAAAACGCGUGCUCCGUUGAAUGGAGUUUAUCAUG [C51A C54U C85U]	-1.93
GGAUCUUCUCGAUCUAACAAAAAAGACAAAUCUGCCACAUAGCUUGAGAGCAUCUUCGGAUGCAGAGGCGGCAGCCUUCGGUGGCGCGAUAGCGCCAACGUUCUCAACUAUGCCACGCAAAACGCGUGCUCCGUUGAAUGGAGUUUAUCAUG [A40U A113C]	-3.79
GGAUCUUUUCGAUCUAACAAAAAAGACAAAUCUGCCACAAAGCUUGAGAGCAUCUUCGGAUGCAGAGGCGGCAGCCUUCGGUGGUGCGAUAGCGCCAACGUUCUCAACUAUGACACGCAAAACGCGUGCUCCGUUGAAUGGAGUUUAUCAUG [C8U C85U]	-3.19
GGAUCUUCUCGAUCUAACAAAAAAGACAAAACUGCCACAAAGCUUGAGAGGAUUUUCGGAUGCAGAGGCGGCAGCCUUCGGUGGCGCGAUAGCGCCAACGUUCUCAACUAUGACACGCAAAGCGCGUGCUCCGUUGAAUGGAGUUUAUCAUG [U31A C51G C54U A122G]	-2.68
GGAUCUUCUCGAUCUAACAAAAAAGACAAAUCUGCCACAAAGCUUGAGAGCAUCUUUGAAUGCAGAGGCGGCAGGCUUCGGUGGCGCGAUAGCGCCAACGUUCUCAACUAUGACACGCAAAACGCGUGCUCCGUUGAGUGGAGUUUAUCAUG [C57U G59A C75G A138G]	-4.02
GGAUCUUCUCGAUCUAACAAAAAAGAUAAAUCUGCCACAAAGCUUGAGAGCAUCUUCGGAUGCAGAGGCGGCAGCCUUCGGUGGCGCGAUAGCGCCAACGGUCUCAACUAUGACACGCAAAACGCGUGCUCCGUUAAAUGGAGUUUAUCAUG [C27U U101G G136A]	-1.57
GGAUCUUCUCGAUCUAACAAAAAAGACAAAUCUGCCACAAAGCUUGAGAGCAUCUUCGGAUGCAGAGGCGGCAGCCUUAGGUGGCGCAAUAGCGCCAACGUUCUCAACUAUGACACGCAAAACGCGUGCUCCUUUGAAUAGAGUUUAUCAUG [C79A G88A G133U G140A]	≤ -4.2
GGAUCUUCUCGAUCUCACAAAAAAGACAAAUCUGCCCCCAAGCUUGAGAGCAUCUUCGGAUGCAGAGGCGGCAGCCUUCGGUGGUGCGAUAGCGCCAACGUUCUCAACUAUGACACGCAAAACGCGUGCUCCGUUGAAUGGAGUUUAUCAUG [A16C A37C A39C C85U]	≤ -4.2
GGAUCUUCUCGAUCUAACAAAAAAGACAAAUCUGCCACAAAGCUUGAGAGCAUCCUCGGAUGCAGAGGCGGCAGCCUUCGGUGGCGCGAUAGCGAGAACGUUCUCAACUAUGACACCCAAAACGCGUGCUCCGUUGAAUGGAGUUUAUCAUG [U55C C95A C96G G117C]	-2.16
GGAUCUUCUCGAUCUAACAAAAGAGACAAAUCUGCCACAAAGCUUGAGAGCAUCUACGGAUGCAGAGGCGGCAGCCUUCGGUGGCGCGAUAGCGCCAACGUUCUCAACUAUGACACGCAAAACGCGUGCUCCGUUGAAUGGAGUUUAUCAUG [A23G U56A]	-2.39

Variant	polymerase ribozyme fitness (log ratio)
GGAUCUUCUCGAUCUAACAAAAAAGACAAAUCUGCCACAAAGCUUGAGAGCAUAUUCGGAUGCAGAGGCGGCAGCCUUCGGUGGCGCGAUAGCGCCAACGUUCUCAACUAUGACACGCAAAAUGCGUGCUCCGUUGAAUGGAGUUUAUCAUG [C54A C123U]	-0.754
GGAUCUUCUCGAUCGUACAAAAAAGACAAAUCUGCCACAAAGCUUGAGAGCAUCUUCGGAUGCAGAGGCGGCAGCCUUCGGUGGUGCGAUAGCGCCAACGUUCUCAACUAUGACACGUAAAACGCGUGCUCCGUUGAAUGGAGUUUAUCAUG [U15G A16U C85U C118U]	-1.42
GGAUCUUCUCGAUCUAACAAAAAAGACAAAUCUGCCACAAAGCUUGAGAGAAUCGUCGGAUGCAGAGGCGGCAGCCUUCGGUGGCGCGAUAGCGCCAACGUUCUCAACUAUGACACGCAAAACGCGUGCUCCGUUGAAUGGAGUUUAUCAUG [C51A U55G]	-2.17
GGAUCUUCUCGAUCUAACAAAAAAGACAAAUCUGCCACAAAGCUUGAGAGCAUCUUCGGAUGCAGAGGCGGCAGCCUUCGGUAGCGCGAUAGCGCCAACGGUCUCAACUAUGACACGCAAAACGCGUGCUCCGUCGAAUGGAGUUUAUAAUG [G83A U101G U135C C149A]	≤ -4.2
GGAUCUUCUCGAUCUAACCAAAGAGACAACUCUGCCACAAAGCUUGAGAGCAUCUUCGGAUGCAGAGGCGGCAGCCUUCGGUGGCGCGAUGGCGCCAACGUUCUCAACUAUGACACGCAAAACGCGUGCUCCGUUGAUGGGAGUUUAUCAUG [A19C A23G A30C A91G A138U U139G]	-4.05
GGAUCUUCUCGAUCUAACAAAAAAGACAAAUCUGCCACAAAGCUUGAGAGCAUCUUCGGAUGCAGAGGCGACAGCCUUCGGUGUCGCGAUAGCGCCAACGCUCUCAACUAUGACACGCAAAACGCGUGCUCCGUUGAAUGGCGUUUAUCAUG [G71A G84U U101C A142C]	≤ -4.2
GGAUCUUCUCGAUCUAAGAAAAAUGACAAAUCUGCCACAAAGCUUGAGAUCAACUUCGGAUGCAGAGGCGGCGGCCUUCGGUGGCGCGAUAACGCCAACGUUCUCAACUAUGACACGCAAAACGCGUGCUCCGUUGAAUGGAGUUUAUCAUG [C18G A24U G50U U53A A73G G92A]	≤ -4.2
GGAUCUUCUCGAUCUAACAAAAAACACAAAUCUGCCACAAAGCUUGAGAGCAUCUUCGGAUGCAGAGGCGGCAGCCUUCGGUAGCGCGAUAGCGCCAACGUUCUCACCUAUGACACGCAAAACGCGUGCUCCGGUGAAUGGAGUUUAUCAUG [G25C G83A A107C U134G]	≤ -4.2
GGAUCUUCUCGUUCUAACCAAAAAGACAAAUCUGCCACAAAGCUUGAGAGCAUCUUCGGAUGCAGAGGCGGCAGCCUUCGGCGGCGCGAUAGCGCCAACGUUCUCAACUAUGACACGCAAAACGCGUGGUCCGUUGAAUGGAGUUUAUCAUG [A12U A19C U82C C129G]	-3.41
GGAUCUUCUCGAUCUAACAAAAAAGACAAAUCUGCCACAACGCUUGAGAGCAUCUUCGGAUGCAGGGGCAGCAGCCUUCGGUGGCGCGAUUGUGCGAACGUUCUCAACUAUGACACGCAAAACGCGUGCUCCGUUGAAUGGAGUUUAUCAUG [A41C A66G G70A A91U C93U C96G]	≤ -4.2
GGAUCUUCUCGAUCUAACAAAAAAGACAAAUCUGUCACAAAGCUUGAGAGCAUCUUCGGAUGCUGAGGCGGCAGCCUUCGGUGGCGCGAUAGCGCCAACGUUCUCAACUAUGACAAGCAAAACGCGUGCUCCGUUGAAUCGAGUUUAUCAUG [C35U A64U C116A G140C]	-3.97
GGAUCUUCUCGAUCUAACAACAAAGACAAAUCUGCCACAAUGCUUGAGAGCAUCUUCGGAUGCAGAGGCGGCAGCCUUCGGUGGUGCGAUAGCGUCAACGUUCUCAACUAUGACACGCAAAACGCGUGCUCCGUUGAAUGGAGUUUAUCAUG [A21C A41U C85U C95U]	-1.34
GGAUCUUCUCGAUCUAACAAAAAAGACAAAUCUGCCACAAAGCUUGAGAGCAUCUUCGGAUGCAGAGGCGGCAGGCUUCGAUGGCGCGAUAGCGCCAACGUUCUCAACUAUGACACGCAAAGCGCGUGCUCCGUUGAAUGGAGUUUAUCAUG [C75G G81A A122G]	≤ -4.2
GGGUCUUCUCGAUCUAACAAAAAAGACAAAUCUGCCACAAAGCUUGAGAGCAUCUUCGGAUGCAGAGGCGGCAGCCUUCGGUUGCGCGAUAGCGCCAACGUUCUCAACUAUGACACGCAAAACGCGUGCUCCGUUGAAUGGAGUUUAUCAUG [A3G G83U]	-0.444
GGAUCUUCUCGAUCUAACAAAAAAGACAAAUCUGCCACAAAGCUUGAGAGCAUCUUCGAAUGCAGCGGCGGCAGCCUUCGGUGACGCGUUAGCGCCAACGUUCUCAACUAUGACACGCAAAACGCGUGCUCCGUUGAAUGGAGUUUAUCAUG [G59A A66C G84A A89U]	≤ -4.2
GGAUCUUCUCGAUCUAACUAAAAAGACAAAUCUGCCACAAAGCUUGAGAGCGUCUGCGGAUGCAGAGGCGGCAGCCUUCCGUGUCGCGAUAGCGCCACCGUUCUCAACUUUGACACGCAAAACGCGUGCUCCGUUGAAUGGAGUUUAUCAUG [A19U A52G U56G G80C G84U A98C A110U]	≤ -4.2
GGAUCUUCUCCAUCUAACAAAAAAGACAAAUCUGCCACAGAGCUUGAGAGCAUCUUCGGAUGCAGAGGCGGCAGCCUUCGGAGGCGCGAUAGCCCCAACGUUCUCAACUAUGACACGCAAAACGCGUGCUCCGUUGAAUUGAGUUUAUCAUG [G11C A40G U82A G94C G140U]	≤ -4.2
GGAUCUUCUCGAUCUAACAAAAAAGACAAAUCUGCCUCAAAGCUUGACAGCAUCUUCGGAUGCAGAGGCGGCAGCCUUCGGUGGCGCGAUAGCGCCAACGUUCUCAACUAUGACACGCAAAACGCGUGCUCCGUUGAAUGGAGUUUAUCAUG [A37U G48C]	-2.02
GGAUCUUCUCGAUCUAACAAAAAAGACAAAUCUACCACAAAGCUUGAGAGCAUCAUCGGAUGCAGAGGCGGCAGCCUUCGGUGGCGCGAUGGCGCCAACGUUCUCAACUAUGACACUCAAAACGCGUGCUCCGUUGAAUGGAGUUUAUCAUG [G34A U55A A91G G117U]	-4.06

Source: the RNAGym collection of RNA variant scans (doi:10.1073/pnas.2313332121)
